Experimental data taken from the nanobody polyreactivity screen of Harvey et al. (2022).

Assay: yeast display, Sf9 membrane polyspecificity reagent, FACS + sequencing; frameworks hold sequencing errors
How it was run: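 A synthetic nanobody library was expressed on Saccharomyces cerevisiae BJ5465 by galactose induction for 36–48 hours. The library was stained for 1 hour at 4 °C with 10% biotinylated, detergent-solubilized Sf9 membrane reagent and enriched with streptavidin microbeads before FACS. Low and high (top ~1%) gates were set on anti-HA fluorescence for expression and streptavidin fluorescence for reagent binding, and each polyreactivity label reflects the gate of origin.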

Sequence | polyreactivity (PSR sort gate)
QVQLVESGGGLVQAGGSLRLSCAASGSIFIGYAMGWYRQAPGKERELVASIRNGGSTNYADSVKGRFTITRDNAKNTVYLQMNSLKPEDTAVYYCAGRYPVFLVSFGFDYWGQGTQVTVSS | low polyreactivity
QVQLVESGGGLVQAGGSLRLSCAASGSIFIQYAMGWYRQAPGKERELVAAITSGGGSTYYADSVKGRFTISRDNAKNTVYLQMNSLKPEDTAVYYCAVDRTRRPAVPYVTLDRGYCGQGTQVTVSS | low polyreactivity
QVQLVESGGGLVQAGGSLRLSCAASGSIFIQYAMGWYSQAPGKERELVAAINSSGGRTYYADSVKGRFTISRDNAKNTVYLQMNSLKPEDTAVYYCAADPGSSFDWGQGTQVTVSS | low polyreactivity
QVQLVESGGGLVQAGGSLRLSCAASGSIFIRYAMGWYRQAPGKERELVASISRSGGSTYYADSVKGRFTISRDNAKNTVYLQMNSLKPEDTAVYYCAARRVRPNGYTSSPLDYWGQGTQVTVSS | high polyreactivity
QVQLVESGGGLVQAGGSLRLSCAASGSIFISYAMGWYRQAPGKERELVAAISSGGSTNYADSVKGRFTISRDNAKNTVYLQMNSLIPEDTAVYYCAAASAAGYDYWGQGTQVTVSS | low polyreactivity
QVQLVESGGGLVQAGGSLRLSCAASGSIFISYARGWYRQAPGKERELVAAITWSGDSTYYADSVKGRFTISRDNAKNTVYLQMNSLKPEDTAVYYCAADWYFRNQRGYYWGQGTQVTVSS | low polyreactivity
QVQLVESGGGLVQAGGSLRLSCAASGSIFITYAMGWYRQAPGKERELVAAIRDSGDRTYYADSVKGRFTISRDNAKNTVYLQMNSLKPEDTAVYYCNARWQKPLKYDYWGQGTQVTVSS | low polyreactivity
QVQLVESGGGLVQAGGSLRLSCAASGSIFIYAMGWYRQAPGKERELVATISWSGTSTYADSVKGRFTISRDNAKNTVYLQMNSLKPEDTAVYYCNKLKRTYYSSGYPHDYWGQGTQVTVSS | low polyreactivity
QVQLVESGGGLVQAGGSLRLSCAASGSIFIYNVMGWYRQAPGKERELVATIRGSGGSTYYADSVKGRFTISRDNAKNTVYLQMNSLKPEDTAVYYCARRDYPYQWGRAYNYWGQGTQVTVSS | high polyreactivity
QVQLVESGGGLVQAGGSLRLSCAASGSIFIYYAMGWYRQAPGKEREFVADISYSGDSTYYADSVKGRFTISRDNAKNTVYFQMNSLKPEDTAVYYCAADTWYDAGVYPYDYWGQGTQVTVSS | high polyreactivity
QVQLVESGGGLVQAGGSLRLSCAASGSIFIYYAMGWYRQAPGKERELVAAISWSGDRTYYADSVKGRFTISRDNAKNTVYLQMNSLKPEDTAVYYCAARVVTPSAFPRYYWGQGTQVTVSS | high polyreactivity
QVQLVESGGGLVQAGGSLRLSCAASGSIFIYYAMGWYRQAPGKERELVAAISYSDGDTYYADSVKGRFTISRDNAKNTVYLQMNSLKPEDTAVYYCAAEVPQYYDVGWEDYCGQGTQVTVSS | high polyreactivity
QVQLVESGGGLVQAGGSLRLSCAASGSIFIYYAMGWYRQAPGKEREMVADITFSAGTNTYYADSVKGRFTISRDNAKNTVYLQKNSLKPEDTAVYYCNADRGFIGSITEYDYWGQGTQVTVSS | low polyreactivity
QVQLVESGGGLVQAGGSLRLSCAASGSIFIYYTMGWYRQAPGKEREFVASISWRGGRTYYADSVKGRFTISRDNAKNTVYLQMNSLKPEETAVYYCAAEQSRGIEFSYYSLYYWGQGTQVTVSS | high polyreactivity
QVQLVESGGGLVQAGGSLRLSCAASGSIFKDYAMGWYRQAPGKERELVASITSGGRTYADSVKGRFTISRDNAKNTVYLQMNSLKPEDTAVYYCNTAHSKAWQYDYWGQGTQVTVSS | high polyreactivity
QVQLVESGGGLVQAGGSLRLSCAASGSIFKFYAMGWYRQAPGKERELVAAISQSGGRTYYADSVKGRFTISRDNAKNTVYLQMNSLKPEDTAVYYCAKSVFPVYGRPSNLWFNYWGQGTQVTVSS | high polyreactivity
QVQLVESGGGLVQAGGSLRLSCAASGSIFKFYTMGWYRQAPGKERELVAAISSSDGSTHYADSVKGRFTISRDNAKNTVYLQMNSLKPEDTAVYYCARRRYSRYSVTRGNYWGQGTQVTVSS | high polyreactivity
QVQLVESGGGLVQAGGSLRLSCAASGSIFKGYAMGRYIQAPGKERELVAAISSSGGSTYYADSVKGRFTISRDNAKNTVYLQMNSLKPEDTAVYYCNTDRYYTYDYLGQGTQVTVSS | low polyreactivity
QVQLVESGGGLVQAGGSLRLSCAASGSIFKGYAMGWYRQAPGKERELVAAITYSGGSTYYADSVKGRFTISRDNAKNTVYLQMNSLKPEDTAVYYCAADSEQDNLRYYRWVWYYYWGQGTQVTVSS | low polyreactivity
QVQLVESGGGLVQAGGSLRLSCAASGSIFKGYDMGWYRQAPGKERELVAAISSGSTNYADSVKGRFTISRDNAKNTVYLQMNSLKPEDTAVYYCNADLGRATFYQRVVIERGGYWGQGTQVTVSS | low polyreactivity
QVQLVESGGGLVQAGGSLRLSCAASGSIFKIYAMGWYRQAPGKARELVATISINGGSTYYADSVKGRFTISRDNAKNTVYLQMNSLKPEDTAVYDCNKVNEYITSQDDYGGQGTQVTVSS | low polyreactivity
QVQLVESGGGLVQAGGSLRLSCAASGSIFKKYAMGWYRQAPGKERELVAAISSGGGSTYYADSVKGRFTISRDNAKNTVYLQMNSLKPEDTAVYYCNARIQYFKYRGYEYWGQGTQVTVSS | high polyreactivity
QVQLVESGGGLVQAGGSLRLSCAASGSIFKLYAMGWYRQAPGKERELVASISVSGGSTYYADSVKGRFTISRDNAKNTVYLQMNSLKPEDTAVYYCAAEKRSSIVGSGGNYWGQGTQVTVSS | low polyreactivity
QVQLVESGGGLVQAGGSLRLSCAASGSIFKNYAMGWYRQAPGKERELVASITTGASTNYADSVKGLFTISRDNAMNTVYLQMNSLKPEDSAVYYCAAYRPTYYAYYYWGQGTQVTVSS | high polyreactivity
QVQLVESGGGLVQAGGSLRLSCAASGSIFKQNAMGRYRQAPGKESELVSDITSCGGSTYYADSVKGRFTISRDNAKNTVYLQMNSLKPEDTAVYYCNVVETSLELGWQAFDYWGQGTQVTVSS | low polyreactivity
QVQLVESGGGLVQAGGSLRLSCAASGSIFKRYAMGWYRQAPGKERELVAAISRRGASTYYADSVKGRFTISRDNAKNTVYLQMNSLKPEDTAVYYCNAYLPRQGPSGRPRSQYDSWGQGTQVTVSS | high polyreactivity
QVQLVESGGGLVQAGGSLRLSCAASGSIFKSNAMGWYRQAPGKERELVAAISNGGITNYADSVKGRFTISRDNAKNTVFLQMNSLKPEDTAVYYCATSDVREIWVDYWGQGTQVTVSS | low polyreactivity
QVQLVESGGGLVQAGGSLRLSCAASGSIFKSYAMGWYRQAPGKERELVAAITWRSGRTYYADSVKGRFTISRDNAKNTVYLQMNSLKPEDTAVYYCAADDTSYYIYSYDYWGQGTQVTVSS | low polyreactivity
QVQLVESGGGLVQAGGSLRLSCAASGSIFKSYAMGWYRQAPGKERELVAVISDSGSTYYADSVKGRFTISRDNAKNTVYLQKNSLKPEDTAVYYCRGRGRRNEYWGQGTQVTVSS | high polyreactivity
QVQLVESGGGLVQAGGSLRLSCAASGSIFKSYAMGWYRQAPGKERELVAVISDSGSTYYADSVKGRFTISRDNAKNTVYLQMNSLKPEDTAVYYCRGRGRRNEYWGQGTQVTVSS | high polyreactivity
